Results taken from article PMC12053661.

B1: Spn1 (wild type) [S. cerevisiae (endogenous in strain S288c)] / Spt6-3XFLAG (wild type) [S. cerevisiae (endogenous in strain S288c)] (parent)
chain 1: MSTADQEQPKVVEATPEDGTASSQKSTINAENENTKQNQSMEPQETSKGTSNDTKDPDNGEKNEEAAIDENSNVEAAERKRKHISTDFSDDDLEKEEHNDQSLQPTVENRASKDRDSSATPSSRQELEEKLDRILKKPKVRRTRRDEDDLEQYLDEKILRLKDEMNIAAQLDIDTLNKRIETGDTSLIAMQKVKLLPKVVSVLSKANLADTILDNNLLQSVRIWLEPLPDGSLPSFEIQKSLFAALNDLPVKTEHLKESGLGRVVIFYTKSKRVEAQLARLAEKLIAEWTRPIIGASDNYRDKRIMQLEFDSEKLRKKSVMDSAKNRKKKSKSGEDPTSRGSSVQTLYEQAAARRNRAAAPAQTTTDYKYAPVSNLSAVPTNARAVGVGSTLNNSEMYKRLTSRLNKKHK
chain 2: MEETGDSKLVPRDEEEIVNDNDETKAPSEEEEGEDVFDSSEEDEDIDEDEDEARKVQEGFIVNDDDENEDPGTSISKKRRKHKRREREEDDRLSEDDLDLLMENAGVERTKASSSSGKFKRLKRVGDEGNAAESESDNVAASRQDSTSKLEDFFSEDEEEEESGLRNGRNNEYGRDEEDHENRNRTADKGGILDELDDFIEDDEFSDEDDETRQRRIQEKKLLREQSIKQPTQITGLSSDKIDEMYDIFGDGHDYDWALEIENEELENGNDNNEAEEEEIDEETGAIKSTKKKISLQDIYDLEDLKKNLMTEGDMKIRKTDIPERYQELRAGITDYGNMSSEDQELERNWIAEKISVDKNFDANYDLTEFKEAIGNAIKFITKENLEVPFIYAYRRNYISSREKDGFLLTEDDLWDIVSLDIEFHSLVNKKDYVQRFYAELHIDDPIVTEYFKNQNTASIAELNSLQDIYDYLEFKYANEINEMFINHTGKTGKKHLKNSSYEKFKASPLYQAVSDIGISAEDVGENISSQHQIHPPVDHPSSKPVEVIESILNANSGDLQVFTSNTKLAIDTVQKYYSLELSKNTKIREKVRSDFSKYYLADVVLTAKGKKEIQKGSLYEDIKYAINRTPMHFRRDPDVFLKMVEAESLNLLSVKLHMSSQAQYIEHLFQIALETTNTSDIAIEWNNFRKLAFNQAMDKIFQDISQEVKDNLTKNCQKLVAKTVRHKFMTKLDQAPFIPNVRDPKIPKILSLTCGQGRFGADAIIAVYVNRKGDFIRDYKIVDNPFDKTNPEKFEDTLDNIIQSCQPNAIGINGPNPKTQKFYKRLQEVLHKKQIVDSRGHTIPIIYVEDEVAIRYQNSERAAQEFPNKPPLVKYCIALARYMHSPLLEYANLTSEEVRSLSIHPHQNLLSSEQLSWALETAFVDIVNLVSVEVNKATDNNYYASALKYISGFGKRKAIDFLQSLQRLNEPLLARQQLITHNILHKTIFMNSAGFLYISWNEKRQKYEDLEHDQLDSTRIHPEDYHLATKVAADALEYDPDTIAEKEEQGTMSEFIELLREDPDRRAKLESLNLESYAEELEKNTGLRKLNNLNTIVLELLDGFEELRNDFHPLQGDEIFQSLTGESEKTFFKGSIIPVRVERFWHNDIICTTNSEVECVVNAQRHAGAQLRRPANEIYEIGKTYPAKVIYIDYANITAEVSLLDHDVKQQYVPISYSKDPSIWDLKQELEDAEEERKLMMAEARAKRTHRVINHPYYFPFNGRQAEDYLRSKERGEFVIRQSSRGDDHLVITWKLDKDLFQHIDIQELEKENPLALGKVLIVDNQKYNDLDQIIVEYLQNKVRLLNEMTSSEKFKSGTKKDVVKFIEDYSRVNPNKSVYYFSLNHDNPGWFYLMFKINANSKLYTWNVKLTNTGYFLVNYNYPSVIQLCNGFKTLLKSNSSKNRMNNYR
B2: Spt6-3XFLAG (wild type) [S. cerevisiae (endogenous in strain S288c)] / Spn1 (wild type) [S. cerevisiae (endogenous in strain S288c)] (parent)
chain 1: B1 chain 2
chain 2: B1 chain 1

Variants of: B1
Test: Spt6-3XFLAG affinity purification with quantitative mass spectrometry
Details: with Spt6-3XFLAG (wild type) [S. cerevisiae (endogenous in strain S288c)]; shift to non-permissive temperature; point at -log10 p-value about 3.4; read off a plot

screen value (log2 fold-change)	Variant
-4	chain 1 MSTADQEQPKVVEATPEDGTASSQKSTINAENENTKQNQSMEPQETSKGTSNDTKDPDNGEKNEEAAIDENSNVEAAERKRKHISTDFSDDDLEKEEHNDQSLQPTVENRASKDRDSSATPSSRQELEEKLDRILKKPKVRRTRRDEDDLEQYLDEKILRLKDEMNIAAQLDIDTLNKRIETGDTSLIAMQKVKLLPKVVSVLSKANLADTILDNNLLQSVRIWLEPLPDGSLPSFEIQKSLFAALNDLPVKTEHLKESGLGDVVIFYTKSKRVEAQLARLAEKLIAEWTRPIIGASDNYRDKRIMQLEFDSEKLRKKSVMDSAKNRKKKSKSGEDPTSRGSSVQTLYEQAAARRNRAAAPAQTTTDYKYAPVSNLSAVPTNARAVGVGSTLNNSEMYKRLTSRLNKKHK [chain 1 R263D]

Same assay, conditions: with Spt6-3XFLAG (wild type) [S. cerevisiae (endogenous in strain S288c)]; shift to non-permissive temperature; point at -log10 p-value about 3.5; read off a plot

screen value (log2 fold-change)	Variant
-4.3	chain 1 MSTADQEQPKVVEATPEDGTASSQKSTINAENENTKQNQSMEPQETSKGTSNDTKDPDNGEKNEEAAIDENSNVEAAERKRKHISTDFSDDDLEKEEHNDQSLQPTVENRASKDRDSSATPSSRQELEEKLDRILKKPKVRRTRRDEDDLEQYLDEKILRLKDEMNIAAQLDIDTLNKRIETGDTSLIAMQKVKLLPKVVSVLSKANLADTILDNNLLQSVRIWLEPLPDGSLPSFEIQKSLFAALNDLPVKTEHLKESGLGRVVIEYTKSKRVEAQLARLAEKLIAEWTRPIIGASDNYRDKRIMQLEFDSEKLRKKSVMDSAKNRKKKSKSGEDPTSRGSSVQTLYEQAAARRNRAAAPAQTTTDYKYAPVSNLSAVPTNARAVGVGSTLNNSEMYKRLTSRLNKKHK [chain 1 F267E]

Variants of: B2
Test: as above
Details: shift to non-permissive temperature, point at -log10 p-value about 3.5, read off a plot

screen value (log2 fold-change)	Variant
-4.2	chain 1 F249K
